Reference: patent US20240158497A1 (published 2024)

T1: human gp130 extracellular domain (E23-E619) with C-terminal mouse IgG2a Fc (human)
T1 construct: dimeric; also called hGP130-mFc; human GP130-mFc
T1 chain: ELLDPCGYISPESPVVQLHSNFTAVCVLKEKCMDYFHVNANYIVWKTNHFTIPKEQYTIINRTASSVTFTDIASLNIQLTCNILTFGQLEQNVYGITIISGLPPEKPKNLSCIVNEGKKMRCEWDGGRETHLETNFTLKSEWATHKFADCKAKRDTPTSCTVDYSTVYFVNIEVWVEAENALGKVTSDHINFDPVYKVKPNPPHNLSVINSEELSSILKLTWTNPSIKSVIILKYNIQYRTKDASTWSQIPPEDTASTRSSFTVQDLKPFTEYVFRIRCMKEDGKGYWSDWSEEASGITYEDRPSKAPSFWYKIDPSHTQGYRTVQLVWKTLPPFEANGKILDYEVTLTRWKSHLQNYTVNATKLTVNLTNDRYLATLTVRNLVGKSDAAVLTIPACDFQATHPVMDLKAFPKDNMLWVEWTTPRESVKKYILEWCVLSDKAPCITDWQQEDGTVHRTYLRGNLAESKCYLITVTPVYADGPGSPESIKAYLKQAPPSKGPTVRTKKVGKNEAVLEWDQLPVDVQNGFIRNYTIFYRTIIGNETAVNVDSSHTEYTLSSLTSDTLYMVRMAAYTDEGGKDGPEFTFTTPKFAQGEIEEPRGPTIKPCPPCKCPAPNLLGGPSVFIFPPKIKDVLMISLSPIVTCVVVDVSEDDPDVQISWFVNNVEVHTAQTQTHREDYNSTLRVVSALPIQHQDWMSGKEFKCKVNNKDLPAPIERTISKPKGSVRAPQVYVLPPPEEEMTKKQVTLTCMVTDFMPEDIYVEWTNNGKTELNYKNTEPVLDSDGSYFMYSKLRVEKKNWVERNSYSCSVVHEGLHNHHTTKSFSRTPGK

B1: MAb16665 (antibody, V domains shown)
VH: QVQLVESGGGVVQPGRSLRLACAASGFTFRSYGMHWVRQAPGKGLEWVAVIWYDGSNKYYTDSVKGRFTISRDNSKNTLYLQMNSLRAEDTAMYYCAIDKWATVTTYLFDYWGQGTLVTVSS
VL: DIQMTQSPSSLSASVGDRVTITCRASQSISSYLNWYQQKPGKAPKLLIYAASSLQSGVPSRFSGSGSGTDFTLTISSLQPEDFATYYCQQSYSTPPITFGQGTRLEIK
notes: hIgG4 isotype control used
B2: MAb16666 (antibody, V domains shown)
VH: EVQLVESGGGLVQSGGSLRLSCAASGFTFSRYEMNWVRQAPGKGLEWVAYISNTGTTRDYSDSVKGRFTISRDNAKNSLYLQMSSLRVEDTAVYYCVREKFSGTSDWFDPWGQGTLVTVSS
VL: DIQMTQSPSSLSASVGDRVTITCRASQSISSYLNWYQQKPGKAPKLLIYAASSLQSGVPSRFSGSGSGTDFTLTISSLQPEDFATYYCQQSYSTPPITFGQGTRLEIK
notes: hIgG4 isotype control used
B3: MAb16676 (antibody, V domains shown)
VH: QVQLVQSGAEVMKPGASVKVSCRASGYTFSSYDINWVRQAPGQGLEWMGWISTATGNTNYPQKVQGRVTMTTDTSTNTAYMELRSLRSDDTAVYYCTREGNSKGWLDPWGQGTLVTVSS
VL: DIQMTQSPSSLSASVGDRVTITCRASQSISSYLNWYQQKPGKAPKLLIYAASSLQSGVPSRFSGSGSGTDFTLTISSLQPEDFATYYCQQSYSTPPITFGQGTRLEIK
notes: hIgG4 isotype control used
B4: MAb16622 (antibody, V domains shown)
VH: EVQLVESGGGVVRPGGSLRLSCTASGFTFDDYGMSWVRQAPGKGLEWVSGINWNGGRTEYADAVKGRFIISRDNAKNSLYLQMNSLRAEDTALYFCARTELRWDYWGQGTLVTVSS
VL: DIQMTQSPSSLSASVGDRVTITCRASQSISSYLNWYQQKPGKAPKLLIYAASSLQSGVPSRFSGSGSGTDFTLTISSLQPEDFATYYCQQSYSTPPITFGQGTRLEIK
notes: hIgG4 isotype control used
B5: MAb16662 (antibody, V domains shown)
VH: EVQLVESGGGLVQPGGSLRLSCTASGFTFSNYAIFWVRQAPGKGLEYVSGISNNGVTKYYADSVRDRFTISRDNSRNTVSIQMDSLRTEDMAVYYCARENWGSDDGFDIWGQGTMVTVSS
VL: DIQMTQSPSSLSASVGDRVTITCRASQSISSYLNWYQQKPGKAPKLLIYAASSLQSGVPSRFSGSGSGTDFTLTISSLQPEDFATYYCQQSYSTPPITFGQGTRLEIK
notes: hIgG4 isotype control used
B6: MAb16656 (antibody, V domains shown)
VH: EVQLVESGGGLVQPGRSLRLSCAASGFTLDDFAMHWVRQAPGKGLEWVSGISWNSGNIGYADSVKGRFTISRDNARNSLYLQMNSLRAEDTALYYCTSGYYLYYAMDVWGQGTTVTVSS
VL: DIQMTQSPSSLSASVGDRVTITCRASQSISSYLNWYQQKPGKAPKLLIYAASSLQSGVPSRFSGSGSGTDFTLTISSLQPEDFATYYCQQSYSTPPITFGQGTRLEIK
notes: hIgG4 isotype control used
B7: MAb16623 (antibody, V domains shown)
VH: EVQLVESGGGLVQPGGSLRLSCAASGLTFSSYEMNWVRQAPGKGLEWVSHISSAGSTKYYADSVKGRFTISRDNAKNSLFLQMNSLRAEDTAIYYCAGYNYAYYYFGVDVWGQGTTVTVSS
VL: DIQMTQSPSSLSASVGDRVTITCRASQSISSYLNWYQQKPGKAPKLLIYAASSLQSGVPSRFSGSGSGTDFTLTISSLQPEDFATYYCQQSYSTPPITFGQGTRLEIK
notes: hIgG4 isotype control used
B8: MAb16669 (antibody, V domains shown)
VH: EVQLVESGGGLVQPGGSLRLSCAASGFTFSSYAMNWVRQAPGKGLEWVSAISGSGDSTYYTDSVKGRFTISRDNSKNTLYLQMNTLRAEDTAVYYCAKEEIVMLVGATPGWFDPWGQGTLVTVSS
VL: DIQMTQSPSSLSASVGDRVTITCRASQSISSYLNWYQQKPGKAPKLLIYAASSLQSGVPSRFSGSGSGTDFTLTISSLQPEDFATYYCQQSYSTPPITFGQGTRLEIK
notes: hIgG4 isotype control used
B9: MAb16618 (antibody, V domains shown)
VH: QVQLQESGPGLVKPSETLSLTCTVSGGSISNYYWTWIRQPPGKGLEWIGHISNSGTTNYNPSLKSRVTISVDTSKNQFSLKLTSVTAADTAVYYCARLPLGIAAVDTDYYYYFGMDVWGQGTTVTVSS
VL: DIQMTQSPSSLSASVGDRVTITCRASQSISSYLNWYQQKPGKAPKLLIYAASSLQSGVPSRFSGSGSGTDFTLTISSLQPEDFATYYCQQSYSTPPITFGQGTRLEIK
notes: hIgG4 isotype control used
B10: MAb16636 (antibody, V domains shown)
VH: QLQLQESGPGLVKPSETLSLICTVSGGSISSNNYYWGWIRQPPGKGLEWIGNLYGSGSTYYNPSLKSRVTISVDTSKNQFSLKLSFVTAADTAVYHCARWDTNGGAFDIWGQGTMVTVSS
VL: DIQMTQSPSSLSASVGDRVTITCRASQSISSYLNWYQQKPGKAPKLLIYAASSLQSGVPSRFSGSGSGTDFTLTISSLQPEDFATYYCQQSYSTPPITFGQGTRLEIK
notes: hIgG4 isotype control used
B11: MAb16683 (antibody, V domains shown)
VH: QVQLVESGGGLVKPGGSLRLSCAASGFTFSDYYMTWIRQTPGKGLDWVSYISSSGTNKYNADSVKGRFTISRDNAKNSLYLQMNSLRAEDTAVYYCVRDPPWGMDVWGQGTTVTVSS
VL: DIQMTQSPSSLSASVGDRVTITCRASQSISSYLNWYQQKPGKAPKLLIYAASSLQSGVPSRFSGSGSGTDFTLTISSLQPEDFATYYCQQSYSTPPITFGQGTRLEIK
notes: hIgG4 isotype control used
B12: MAb16664 (antibody, V domains shown)
VH: QVQLVQSGTEVKKPGSSVKVSCKASGGTFSTYPINWVRQAPGQGLEWMGGIIPIFGTASYAQKFQGRVAITTDESTSTAYMELNSLRSEDTAVYYCARERPNWGSNDYWGQGTLVTVSS
VL: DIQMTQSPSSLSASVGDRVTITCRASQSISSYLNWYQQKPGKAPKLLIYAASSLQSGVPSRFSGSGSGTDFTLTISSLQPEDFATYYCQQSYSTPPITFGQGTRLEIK
notes: hIgG4 isotype control used
B13: MAb16673 (antibody, V domains shown)
VH: EVQLVQSGAEVKKPGESLKISCKGSGYSFTSYWIDWVRQMPGKGLEWMGIIYPDDSDTRYSPSFQGQVTMSVDKSISTAYLQWSSLKASDTAIYYCARHERGIVEAGTDYYYYYGMDVWGQGTTVTVSS
VL: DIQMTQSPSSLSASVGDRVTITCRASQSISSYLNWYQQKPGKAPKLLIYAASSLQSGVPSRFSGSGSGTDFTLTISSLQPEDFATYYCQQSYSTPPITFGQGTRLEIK
notes: hIgG4 isotype control used
B14: MAb16637 (antibody, V domains shown)
VH: QVQLVQSGAEVKKPGASVKVSCKASGYTFTSLGISWVRQAPGQGLEWMGWISAYSGNRDYAQKFQGRVTMTTDTSTSTAYMELRSLRSDDTAVYYCARSLRFDYWGQGTLVTVSS
VL: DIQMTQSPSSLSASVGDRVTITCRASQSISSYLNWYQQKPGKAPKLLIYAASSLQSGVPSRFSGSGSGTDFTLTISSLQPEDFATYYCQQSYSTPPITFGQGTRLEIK
notes: hIgG4 isotype control used
B15: MAb16682 (antibody, V domains shown)
VH: EVQLVESGGGLVQPGGSLRLSCAASGFTFSTYWMNWVRQAPGKGLEWVANIKEDGSEKYYVDSVKGRFTISRDNAKNSLYLQMNSLRAEDTAVYYCAREGFGVVTYIWGQGTMVTVSS
VL: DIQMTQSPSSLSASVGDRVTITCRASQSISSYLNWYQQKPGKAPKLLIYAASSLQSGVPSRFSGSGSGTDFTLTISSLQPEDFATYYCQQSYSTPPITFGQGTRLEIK
notes: hIgG4 isotype control used
B16: MAb16659 (antibody, V domains shown)
VH: QVQLVQSGPEVKKPGSSVKVSCKASGGTIDRNEITWVRQAPGQGLEWMGVIIPILGEAHYERKFQGRLTITMDESTSTAYMELSNLRSEDTAVYYCARERAARGYLDYWGQGTLVTVSS
VL: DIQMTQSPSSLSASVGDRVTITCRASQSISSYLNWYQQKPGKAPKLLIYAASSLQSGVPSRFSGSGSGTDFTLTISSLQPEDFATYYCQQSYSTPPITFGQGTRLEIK
notes: hIgG4 isotype control used
B17: MAb16614 (antibody, V domains shown)
VH: QVQLVESGGGVVQPGGSLRLSCAASGFTFSTYDIHWVRQAPGKGLEWVAVISFDGSNRNYGDSVKGRFTISRDNSDNTLFLEMNNLRFEDTAVYYCAKEGYGVDFQHWGQGTLVTVSS
VL: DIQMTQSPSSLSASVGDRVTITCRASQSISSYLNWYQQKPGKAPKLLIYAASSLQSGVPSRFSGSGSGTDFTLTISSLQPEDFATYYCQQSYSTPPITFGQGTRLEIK
notes: hIgG4 isotype control used

Target: T1, human gp130 extracellular domain …
Test: blocking ELISA, 2.5 nM hGP130-mFc on plate-bound CNTFR/CNTF complex
Description: The experiment was carried out using the following procedure. Human CNTFRα was coated at a concentration of […] in HBSS on a 96-well microtiter plate overnight at 4° C. […] Human CNTF at a concentration of 1 μg/ml in HBSS was added to the plate bound CNTFRα for 1 hour at room temperature. In separate dilution plates, a constant amount of 2.5 nM of human GP130-mFc protein was titrated with antibodies ranging from 3.4 pM to 200 nM in serial dilution and with no antibody present. These solutions were incubated for 1 hour at room temperature (RT) and subsequently transferred to the microtiter plates with CNTFRα/CNTF complex without washing. The plates were incubated for 2 hours at RT, washed with PBST buffer, and plate-bound hGP130-mFc was detected with an anti-mFc polyclonal antibody conjugated with horseradish peroxidase (HRP) (Jackson ImmunoResearch Inc). Samples were developed with a TMB solution (BD Biosciences, substrate A and B mixed at 1:1 ratio as per manufacturer's instructions) to produce a colorimetric reaction and then neutralized with 1M sulfuric acid before measuring absorbance at 450 nm on a Victor X5 plate reader.
Data analysis was performed using a sigmoidal dose-response model within Prism™ software (GraphPad). […] Percent blockade at maximum concentration tested was calculated as an indicator of the ability of the antibodies to block binding of GP130 to CNTFRα/CNTF on the plate as determined from the dose curve. The ratio of the reduction in signal observed in the presence of the highest tested concentration of 200 nM antibody, relative to the difference between the signal with 2.5 nM GP130 with no antibody (0% blocking) and the background signal from HRP-conjugated secondary antibody alone (100% blocking), was subtracted from 100% blocking.

Max Blocking of Antibody at 200 nM (%) | IC50 | Binder
-47.1% | – | B1
103% | – | B2
-15.4% | – | B3
-84.1% | – | B4
81.9% | 6.51 nM | B5
-24.7% | – | B6
-49.2% | – | B7
47.1% | 12.3 nM | B8
86.7% | 2.37 nM | B9
94.8% | 1.1 nM | B10
-22.8% | – | B11
-46.5% | – | B12
104% | 2.37 nM | B13
-38.9% | – | B14
-3.39% | – | B15
-18.8% | – | B16
-14.8% | – | B17
